Measured values published in US20240325555A1.

Assays:
rat LIV-1 (rat) = molecular target: T1, rat LIV-1 (rat) (UniProt Q4V887); assay: FACS, HEK293/Rat_LIV-1 cells
T1 sequence (looked up): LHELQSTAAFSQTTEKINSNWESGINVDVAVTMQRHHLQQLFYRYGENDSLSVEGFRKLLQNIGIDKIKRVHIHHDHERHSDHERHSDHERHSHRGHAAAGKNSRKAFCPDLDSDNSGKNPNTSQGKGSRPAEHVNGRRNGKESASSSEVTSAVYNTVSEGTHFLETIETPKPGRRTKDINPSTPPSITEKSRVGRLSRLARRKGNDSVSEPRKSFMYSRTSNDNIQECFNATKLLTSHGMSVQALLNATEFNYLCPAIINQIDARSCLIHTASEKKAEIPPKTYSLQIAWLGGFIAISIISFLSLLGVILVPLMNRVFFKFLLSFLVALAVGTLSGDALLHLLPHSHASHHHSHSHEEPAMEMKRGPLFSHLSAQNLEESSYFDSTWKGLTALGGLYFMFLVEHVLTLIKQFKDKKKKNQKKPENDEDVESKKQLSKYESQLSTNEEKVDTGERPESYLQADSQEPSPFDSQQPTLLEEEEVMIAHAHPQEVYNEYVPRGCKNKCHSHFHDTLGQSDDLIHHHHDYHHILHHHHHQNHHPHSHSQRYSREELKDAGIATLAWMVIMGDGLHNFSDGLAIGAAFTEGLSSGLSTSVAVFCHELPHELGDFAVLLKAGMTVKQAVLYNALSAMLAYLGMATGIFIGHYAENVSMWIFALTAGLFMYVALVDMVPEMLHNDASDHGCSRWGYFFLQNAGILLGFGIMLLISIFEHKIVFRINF

mouse LIV-1 (mouse) = molecular target: T2, mouse LIV-1 (mouse) (UniProt Q8C145); assay: FACS, HEK293/Mouse_LIV-1 cells
T2 sequence (looked up): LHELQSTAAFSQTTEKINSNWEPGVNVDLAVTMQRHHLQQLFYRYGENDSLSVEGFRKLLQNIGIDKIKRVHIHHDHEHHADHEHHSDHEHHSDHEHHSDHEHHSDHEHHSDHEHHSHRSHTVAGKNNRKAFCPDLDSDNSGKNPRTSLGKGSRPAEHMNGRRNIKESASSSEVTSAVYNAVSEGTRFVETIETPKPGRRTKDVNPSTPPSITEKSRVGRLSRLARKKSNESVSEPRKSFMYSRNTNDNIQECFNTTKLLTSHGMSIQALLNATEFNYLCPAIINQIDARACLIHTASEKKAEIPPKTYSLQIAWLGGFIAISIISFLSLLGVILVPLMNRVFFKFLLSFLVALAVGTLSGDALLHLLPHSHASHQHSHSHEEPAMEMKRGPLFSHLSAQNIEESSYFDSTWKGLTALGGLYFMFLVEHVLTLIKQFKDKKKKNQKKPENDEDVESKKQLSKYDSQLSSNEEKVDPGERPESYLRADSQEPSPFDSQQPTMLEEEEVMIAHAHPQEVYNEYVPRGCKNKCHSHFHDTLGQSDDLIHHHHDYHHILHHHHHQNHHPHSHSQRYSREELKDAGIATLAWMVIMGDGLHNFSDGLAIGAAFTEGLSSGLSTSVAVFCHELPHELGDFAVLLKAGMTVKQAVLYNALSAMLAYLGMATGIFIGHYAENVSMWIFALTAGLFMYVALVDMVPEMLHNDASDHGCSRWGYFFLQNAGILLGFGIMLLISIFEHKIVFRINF

B1: 5D6B10 (antibody, V domains shown)
VH: QVQLKQSGPGLVQPSQSLSITCTVSGFSLTTYGIHWVRQSPGKGLEWLGVIWTGGTTDYNAAFISRLSISKDNSKSQVFFKMNSLQANDTAIYYCARGPSSYWGQGTLVTVSA
VL: DIVMTQSQKFMSTSVGDRVSVTCKASQNVDTNVVWYQQKPGQSPKALIHSASYRYSGVPDRFTGSGSGTDFTLTISNVQSEDLAEYFCQQYNNYPWTFGGGTKLEIK
Top (MFI) (rat LIV-1 (rat)): 150 MFI
Top (MFI) (mouse LIV-1 (mouse)): 121 MFI
